In article PMC13138755, “Potential Rad54 separation of function mutation highlights unique roles during homologous recombination”:
Substitutions are numbered along the chain they refer to.

Assays:
Conditions in all cases: protein: recombinant; tags: GFP-GST (N-term); label: Atto647N 5' on strand 1; blunt
Rad54 S816A/S817A = target: T1, Rad54 S816A/S817A (Saccharomyces cerevisiae, UniProt P32863 1-898, S816A;S817A); assay: EMSA; 3 mM Mg2+; Kd slightly above WT, not significant; value only in figure; EMSA: 35 mM Tris-Cl pH 7.5, 3 mM MgCl2, 50 mM KCl, 1 mM DTT, 10% glycerol, 10 nM DNA, 30 C, 5 min, 8% native PAGE in 0.5x TBE; DNA curtains: HR buffer (composition not given), 10 nM GFP-Rad54, flow 0.2 mL/min
T1 sequence: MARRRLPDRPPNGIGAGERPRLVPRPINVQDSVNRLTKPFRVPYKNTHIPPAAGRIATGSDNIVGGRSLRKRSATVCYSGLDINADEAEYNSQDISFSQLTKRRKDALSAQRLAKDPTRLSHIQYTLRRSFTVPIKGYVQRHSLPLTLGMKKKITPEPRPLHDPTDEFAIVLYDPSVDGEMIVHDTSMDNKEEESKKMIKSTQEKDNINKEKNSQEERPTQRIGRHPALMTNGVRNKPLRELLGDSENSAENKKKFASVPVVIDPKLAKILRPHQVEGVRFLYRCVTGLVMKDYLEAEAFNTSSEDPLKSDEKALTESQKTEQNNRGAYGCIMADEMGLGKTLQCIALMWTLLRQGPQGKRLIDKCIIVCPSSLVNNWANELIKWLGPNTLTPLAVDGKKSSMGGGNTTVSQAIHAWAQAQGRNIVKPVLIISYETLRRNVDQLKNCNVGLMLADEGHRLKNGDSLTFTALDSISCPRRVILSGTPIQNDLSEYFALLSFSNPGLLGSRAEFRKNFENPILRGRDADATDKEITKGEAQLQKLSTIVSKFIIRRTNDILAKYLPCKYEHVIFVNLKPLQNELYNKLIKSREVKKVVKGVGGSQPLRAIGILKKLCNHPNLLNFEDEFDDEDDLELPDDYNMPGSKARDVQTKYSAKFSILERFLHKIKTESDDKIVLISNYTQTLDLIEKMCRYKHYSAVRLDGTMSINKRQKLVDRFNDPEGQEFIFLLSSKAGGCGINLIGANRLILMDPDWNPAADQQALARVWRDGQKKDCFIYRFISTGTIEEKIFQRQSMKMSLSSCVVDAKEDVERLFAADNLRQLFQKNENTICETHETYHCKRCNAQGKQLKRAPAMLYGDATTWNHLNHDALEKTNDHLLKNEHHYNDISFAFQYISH

Rad54 S816D/S817D = target: T2, Rad54 S816D/S817D (Saccharomyces cerevisiae, UniProt P32863 1-898, S816D;S817D); assay: EMSA; apparent Kd; Hill fit; 3 mM Mg2+; p = 0.008 vs WT; EMSA: 35 mM Tris-Cl pH 7.5, 3 mM MgCl2, 50 mM KCl, 1 mM DTT, 10% glycerol, 10 nM DNA, 30 C, 5 min, 8% native PAGE in 0.5x TBE; DNA curtains: HR buffer (composition not given), 10 nM GFP-Rad54, flow 0.2 mL/min
T2 sequence: T1 sequence with A816D, A817D

[1] = target: T3, Rad54 D525S/D527S/S816D/S817D (Saccharomyces cerevisiae, UniProt P32863 1-898, D525S;D527S;S816D;S817D); assay: EMSA; apparent Kd; Hill fit; 3 mM Mg2+; EMSA: 35 mM Tris-Cl pH 7.5, 3 mM MgCl2, 50 mM KCl, 1 mM DTT, 10% glycerol, 10 nM DNA, 30 C, 5 min, 8% native PAGE in 0.5x TBE; DNA curtains: HR buffer (composition not given), 10 nM GFP-Rad54, flow 0.2 mL/min
T3 sequence: T1 sequence with D525S, D527S, A816D, A817D

B1: 90 bp dsDNA (90-mer) (dsDNA)
DNA 1: GATGTTCTGCTGGATATGCACTTTTCCGGGCTGACGTACACCGTGCTCAGCCTGTTTTTCAGCGATCCGGATATGCATCCGCTGGATTTC
DNA 2: GAAATCCAGCGGATGCATATCCGGATCGCTGAAAAACAGGCTGAGCACGGTGTACGTCAGCCCGGAAAAGTGCATATCCAGCAGAACATC
binding result (Rad54 S816A/S817A): binds
Kd (Rad54 S816D/S817D): 41 nM
Kd [1]: ~18 nM
